Measured values taken from patent publication US20160299151.

What was measured:
L-glycine-L-glutamine = molecular target: T1, L-glycine-L-glutamine
T1 chain: GQ

L-alanine-L-glutamine = molecular target: T2, L-alanine-L-glutamine
T2 chain: AQ

B1: holo-BpsA (BpsA pre-activated by Sfp as in Example 1), His6-tagged recombinant polypeptide (protein)
chain: MTLQETSVLEPTLQGTTTLPGLLAQRVAEHPEAIAVAYRDDKLTFRELASRSAALADYLEHLGVSADDCVGLFVEPSIDLMVGAWGILNAGAAYLPLSPEYPEDRLRYMIENSETKIILAQQRLVSRLRELAPKDVTIVTLRESEAFVRPEGTEAPAARSARPDTLAYVIYTSGSTGKPKGVMIEHRSIVNQLGWLRETYAIDRSKVILQKTPMSFDAAQWEILSPANGATVVMGAPGVYADPEGLIETIVKHNVTTLQCVPTLLQGLIDTEKFPECVSLQQIFSGGEALSRLLAIQTTQEMPGRALINVYGPTETTINSSSFPVDPADLDEGPQSISIGSPVHGTTYHILDKETLKPVGVGEIGELYIGGIQLARGYLHRDDLTAERFLEIELEEGAEPVRLYKTGDLGQWNNDGTVQFAGRADNQVKLRGYRVELDEISLAIENHDWVRNAAVIVKNDGRTGFQNLIACIELSEKEAALMDQGNHGSHHASKKSKLQVKAQLSNPGLRDDAELAARPAFDLEGAEPTPEQRARVFARKTYRFYEGGAVTQADLLGLLGATVTAGYSRKAADLAPAELGQILRWFGQYISEERLLPKYGYASPGALYATQMYFELEGVGGLKPGYYYYQPVRHQLVLISEREATGKATAQIHFIGKKSGIEPVYKNNILEVLEIETGHMVGLFEQILPAYGLDIHDRAYEPAVKDLLDVADEDYYLGTFELVPHAGARDDQAEVYVQTHGGKVAGLPEGQYRYENGELTRFSDDIVLKKHVIAINQSVYQAASFGISVYSRAEEEWLKYITLGKKLQHLMMNGLNLGFMSSGYSSKTGNPLPASRRMDAVLGANGVDSAPMYFFVGGRISDEQIGHEGMREDSVHMRGPAELIRDDLVSFLPDYMIPNRVVVFDRLPLSANGKIDVKALAASDQVNAELVERPFVAPRTETEKEIAAVWEKALRRENASVQDDFFESGGNSLIAVGLVRELNARLGVSLPLQSVLESPTIEKLARRLEREVAQESSRFVRLHAETGKARPVICWPGLGGYPMNLRSLAGEIGLGRSFYGVQSYGINEGETPYETITEMAKKDIEALKEIQPAGPYTLWGYSFGARVAFETAYQLEQAGEKVDNLFLIAPGSPKVRAENGKVWGREASFANRGYTTILFSVFTGTISGPDLDRCLETVTDEASFAEFISELKGIDVDLARRIISVVGQTYEFEYSFHELAERTLQAPISIFKAVGDDYSFLENSSGYSAEPPTVIDLDADHYSLLREDIGELVKHIRYLLGE
blue pigment formation (A590 after resuspension in DMSO) after 72 hours at 25 C with 4 mM substrate (L-glycine-L-glutamine): In each case except the no substrate control, blue pigment formation was observed, suggesting that an indigoidine like product had indeed been formed
blue pigment formation (A590 after resuspension in DMSO) after 72 hours at 25 C with 4 mM substrate (L-alanine-L-glutamine): In each case except the no substrate control, blue pigment formation was observed, suggesting that an indigoidine like product had indeed been formed
